PMC6363758, “Zinc regulates ERp44-dependent protein quality control in the early secretory pathway” (Nature Communications, 2019)

Legend:
[1] = biological target: T1, Ero1α Cys104/Cys131Cys166Ala mutant (recombinant) (UniProt Q96HE7 24-468, Cys104/Cys131Cys166Ala | Cys104/Cys131Cys166Ala | Cys104/Cys131Cys166Ala); assay: ITC; 200 µM ERp44 injected into 15 µM Ero1α and 15 µM ZnCl2; 20 mM BisTris-HCl pH 6.2, 150 mM NaCl, 283 K; conditions: both partners purified
T1 construct: Ero1α with Cys104, Cys131 and Cys166 replaced by Ala; used in all the in vitro experiments
T1 sequence (looked up): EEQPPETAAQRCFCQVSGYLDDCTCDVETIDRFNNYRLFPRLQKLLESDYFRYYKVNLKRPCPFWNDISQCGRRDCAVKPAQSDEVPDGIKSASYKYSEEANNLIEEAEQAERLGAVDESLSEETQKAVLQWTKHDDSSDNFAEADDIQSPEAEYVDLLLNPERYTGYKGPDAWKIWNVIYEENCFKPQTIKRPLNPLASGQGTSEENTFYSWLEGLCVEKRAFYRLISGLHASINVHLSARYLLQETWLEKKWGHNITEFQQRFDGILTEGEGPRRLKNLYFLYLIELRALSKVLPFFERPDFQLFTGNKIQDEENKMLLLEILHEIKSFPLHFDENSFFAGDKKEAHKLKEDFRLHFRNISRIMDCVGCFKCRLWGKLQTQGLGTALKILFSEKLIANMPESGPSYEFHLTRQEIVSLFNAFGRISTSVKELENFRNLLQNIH

[2] = biological target: T1, Ero1α Cys104/Cys131Cys166Ala mutant …; assay: ITC; 420 µM Ero1α injected into 30 µM ERp44 WT, no Zn2+; 20 mM BisTris-HCl pH 6.2, 150 mM NaCl, 283 K; conditions: both partners purified

B1: ERp44 WT (recombinant) (natural protein)
chain: EITSLDTENIDEILNNADVALVNFYADWCRFSQMLHPIFEEASDVIKEEFPNENQVVFARVDCDQHSDIAQRYRISKYPTLKLFRNGMMMKREYRGQRSVKALADYIRQQKSDPIQEIRDLAEITTLDRSKRNIIGYFEQKDSDNYRVFERVANILHDDCAFLSAFGDVSKPERYSGDNIIYKPPGHSAPDMVYLGAMTNFDVTYNWIQDKCVPLVREITFENGEELTEEGLPFLILFHMKEDTESLEIFQNEVARQLISEKGTINFLHADCDKFRHPLLHIQKTPADCPVIAIDSFRHMYVFGDFKDVLIPGKLKQFVFDLHSGKLHREFHHGPDPTDTAPGEQAQDVASSPPESSFQKLAPSEYRYTLLRDRDEL
notes: ERp44, chaperone of the PDI family; Probably the mature protein without its signal peptide (surmise)
[1]
  Kd: 220 nM
[2]
  Kd: 1310 nM
